This is an account of results in paper PMC3504642.

The target of experiment [1] is AF488-Fc (C328A/K367C IgE-Fc Cε3-Cε4 protein labeled with Alexa Fluor 488 at residue 367). The experiment is described as follows: other fluorescence titration.
For another experiment, the target named is FcεRIα (Homo sapiens) (UniProt P12319). To be noted: cited from earlier work.

The substance “soluble FcεRI α-chain ectodomain (from UniProt P12319 26-205) (receptor)” returned a Kd in experiment [1] of 22 nM.

For the substance “IgE Fc Fc (Cε2-Cε4) (from UniProt P01854)”, the Kd in the experiment with FcεRIα (Homo sapiens) was less than 1 nM.

For orientation: Kd means the concentration at which binding is half-saturated.
